Laboratory results: the supplement of paper PMC9112550, “Optimization of the antimicrobial peptide Bac7 by deep mutational scanning” (BMC Biology, 2022)

The sequences below were run on Escherichia coli TOP10 (assay: shrunken log2 fold change of peptide-encoding DNA abundance (4.5 h post-induction vs induction); higher = less antimicrobial activity (less host growth inhibition)). Conditions: time post-induction: 4.5 h; library: site-saturation at positions 5, 18, 19, 20.
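Also: peptides expressed intracellularly from a pBAD plasmid library in pooled LB shake-flask culture, induced with 0.3% L-arabinose, DNA abundance read by NGS, three biological replicates, DESeq2 with apeglm shrinkage.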

Sequence	shrunken log2 fold change
RRIRCRPPRLPRPRPRPGNVPRP	-0.357
RRIRCRPPRLPRPRPRPGPTPRP	0.848
RRIRCRPPRLPRPRPRPGRRPRP	1.11
RRIRCRPPRLPRPRPRPGSKPRP	-0.179
RRIRCRPPRLPRPRPRPGTDPRP	-0.00121
RRIRCRPPRLPRPRPRPGWPPRP	0.63
RRIRCRPPRLPRPRPRPGWSPRP	-0.0169
RRIRCRPPRLPRPRPRPGYVPRP	-0.0932
RRIRCRPPRLPRPRPRPGYWPRP	0.196
RRIRCRPPRLPRPRPRPHCGPRP	-0.156
RRIRCRPPRLPRPRPRPHDLPRP	-0.46
RRIRCRPPRLPRPRPRPHDMPRP	-0.234
RRIRCRPPRLPRPRPRPHDNPRP	-0.356
RRIRCRPPRLPRPRPRPHEDPRP	-0.157
RRIRCRPPRLPRPRPRPHEGPRP	-0.172
RRIRCRPPRLPRPRPRPHEPPRP	-0.00114
RRIRCRPPRLPRPRPRPHEWPRP	0.00702
RRIRCRPPRLPRPRPRPHFAPRP	0.0672
RRIRCRPPRLPRPRPRPHFLPRP	-0.657
RRIRCRPPRLPRPRPRPHFMPRP	-0.774
RRIRCRPPRLPRPRPRPHHVPRP	0.0159
RRIRCRPPRLPRPRPRPHIIPRP	-0.11
RRIRCRPPRLPRPRPRPHIYPRP	-0.954
RRIRCRPPRLPRPRPRPHKNPRP	-0.418
RRIRCRPPRLPRPRPRPHLLPRP	-0.375

Sequence	shrunken log2 fold change
RRIRCRPPRLPRPRPRPHNAPRP	-0.171
RRIRCRPPRLPRPRPRPHNRPRP	-0.512
RRIRCRPPRLPRPRPRPHPTPRP	-0.0382
RRIRCRPPRLPRPRPRPHQQPRP	0.14
RRIRCRPPRLPRPRPRPHRMPRP	-0.401
RRIRCRPPRLPRPRPRPHSAPRP	0.0702
RRIRCRPPRLPRPRPRPHSRPRP	0.0572
RRIRCRPPRLPRPRPRPHTKPRP	-0.309
RRIRCRPPRLPRPRPRPHVWPRP	-0.185
RRIRCRPPRLPRPRPRPHWPPRP	0.149
RRIRCRPPRLPRPRPRPHYLPRP	-0.574
RRIRCRPPRLPRPRPRPHYTPRP	-0.311
RRIRCRPPRLPRPRPRPHYVPRP	-0.78
RRIRCRPPRLPRPRPRPHYWPRP	-0.783
RRIRCRPPRLPRPRPRPIAKPRP	0.0637
RRIRCRPPRLPRPRPRPIAMPRP	-0.0964
RRIRCRPPRLPRPRPRPIAPPRP	0.509
RRIRCRPPRLPRPRPRPIATPRP	0.366
RRIRCRPPRLPRPRPRPICKPRP	0.0601
RRIRCRPPRLPRPRPRPIDPPRP	-0.18
RRIRCRPPRLPRPRPRPIDTPRP	-0.385
RRIRCRPPRLPRPRPRPIEKPRP	-0.0167
RRIRCRPPRLPRPRPRPILMPRP	-0.796
RRIRCRPPRLPRPRPRPILWPRP	0.0346
RRIRCRPPRLPRPRPRPINCPRP	-0.0582

Sequence	shrunken log2 fold change
RRIRCRPPRLPRPRPRPIPTPRP	-0.0788
RRIRCRPPRLPRPRPRPIQDPRP	-0.49
RRIRCRPPRLPRPRPRPIQMPRP	-0.0491
RRIRCRPPRLPRPRPRPIRGPRP	0.0532
RRIRCRPPRLPRPRPRPIRNPRP	-0.182
RRIRCRPPRLPRPRPRPISFPRP	-0.113
RRIRCRPPRLPRPRPRPISYPRP	-0.485
RRIRCRPPRLPRPRPRPITFPRP	-0.167
RRIRCRPPRLPRPRPRPIVGPRP	-0.477
RRIRCRPPRLPRPRPRPIVVPRP	-0.34
RRIRCRPPRLPRPRPRPIYWPRP	-0.815
RRIRCRPPRLPRPRPRPKASPRP	-0.00163
RRIRCRPPRLPRPRPRPKCMPRP	-0.483
RRIRCRPPRLPRPRPRPKFHPRP	-0.498
RRIRCRPPRLPRPRPRPKHIPRP	-0.443
RRIRCRPPRLPRPRPRPKIKPRP	-0.287
RRIRCRPPRLPRPRPRPKKAPRP	-0.235
RRIRCRPPRLPRPRPRPKKPPRP	-0.0369
RRIRCRPPRLPRPRPRPKKWPRP	0.00275
RRIRCRPPRLPRPRPRPKLHPRP	-0.113
RRIRCRPPRLPRPRPRPKLTPRP	-0.223
RRIRCRPPRLPRPRPRPKMFPRP	-0.265
RRIRCRPPRLPRPRPRPKMVPRP	-0.0546
RRIRCRPPRLPRPRPRPKNDPRP	-0.048
RRIRCRPPRLPRPRPRPKNFPRP	-0.555

Sequence	shrunken log2 fold change
RRIRCRPPRLPRPRPRPKNVPRP	-0.258
RRIRCRPPRLPRPRPRPKQCPRP	0.269
RRIRCRPPRLPRPRPRPKRFPRP	0.322
RRIRCRPPRLPRPRPRPKRKPRP	0.157
RRIRCRPPRLPRPRPRPKSHPRP	-0.117
RRIRCRPPRLPRPRPRPKTHPRP	-0.115
RRIRCRPPRLPRPRPRPKTRPRP	0.305
RRIRCRPPRLPRPRPRPKVTPRP	-0.455
RRIRCRPPRLPRPRPRPKWEPRP	0.173
RRIRCRPPRLPRPRPRPKWTPRP	-0.0568
RRIRCRPPRLPRPRPRPKYDPRP	-0.605
RRIRCRPPRLPRPRPRPKYQPRP	-0.0383
RRIRCRPPRLPRPRPRPKYRPRP	-0.326
RRIRCRPPRLPRPRPRPLCGPRP	-0.0842
RRIRCRPPRLPRPRPRPLCRPRP	0.0269
RRIRCRPPRLPRPRPRPLDSPRP	-0.179
RRIRCRPPRLPRPRPRPLDTPRP	-0.153
RRIRCRPPRLPRPRPRPLDYPRP	-0.75
RRIRCRPPRLPRPRPRPLEFPRP	-0.245
RRIRCRPPRLPRPRPRPLETPRP	-0.012
RRIRCRPPRLPRPRPRPLFMPRP	-0.368
RRIRCRPPRLPRPRPRPLGFPRP	-0.116
RRIRCRPPRLPRPRPRPLGGPRP	0.281
RRIRCRPPRLPRPRPRPLGHPRP	-0.372
RRIRCRPPRLPRPRPRPLHMPRP	-0.295

Sequence	shrunken log2 fold change
RRIRCRPPRLPRPRPRPLIMPRP	-0.689
RRIRCRPPRLPRPRPRPLINPRP	-0.621
RRIRCRPPRLPRPRPRPLKAPRP	-0.249
RRIRCRPPRLPRPRPRPLKVPRP	-0.284
RRIRCRPPRLPRPRPRPLLGPRP	0.201
RRIRCRPPRLPRPRPRPLMGPRP	-0.214
RRIRCRPPRLPRPRPRPLMHPRP	-0.264
RRIRCRPPRLPRPRPRPLNGPRP	-0.444
RRIRCRPPRLPRPRPRPLNMPRP	-0.646
RRIRCRPPRLPRPRPRPLNNPRP	-0.694
RRIRCRPPRLPRPRPRPLPAPRP	0.574
RRIRCRPPRLPRPRPRPLQFPRP	-0.0752
RRIRCRPPRLPRPRPRPLRPPRP	0.815
RRIRCRPPRLPRPRPRPLRTPRP	1.01
RRIRCRPPRLPRPRPRPLSCPRP	-0.184
RRIRCRPPRLPRPRPRPLTCPRP	-0.184
RRIRCRPPRLPRPRPRPLVNPRP	-0.841
RRIRCRPPRLPRPRPRPLVPPRP	-0.202
RRIRCRPPRLPRPRPRPLVSPRP	-0.245
RRIRCRPPRLPRPRPRPMCPPRP	-0.312
RRIRCRPPRLPRPRPRPMDHPRP	-0.904
RRIRCRPPRLPRPRPRPMDSPRP	-0.142
RRIRCRPPRLPRPRPRPMECPRP	-0.00088
RRIRCRPPRLPRPRPRPMEVPRP	0.015
RRIRCRPPRLPRPRPRPMGEPRP	0.0249

Sequence	shrunken log2 fold change
RRIRCRPPRLPRPRPRPMGLPRP	-0.0216
RRIRCRPPRLPRPRPRPMIFPRP	-0.369
RRIRCRPPRLPRPRPRPMINPRP	-0.53
RRIRCRPPRLPRPRPRPMKFPRP	-0.0717
RRIRCRPPRLPRPRPRPMKRPRP	-0.176
RRIRCRPPRLPRPRPRPMKSPRP	-0.1
RRIRCRPPRLPRPRPRPMLCPRP	0.0786
RRIRCRPPRLPRPRPRPMLYPRP	-0.189
RRIRCRPPRLPRPRPRPMMLPRP	-0.117
RRIRCRPPRLPRPRPRPMMMPRP	2.91
RRIRCRPPRLPRPRPRPMPKPRP	0.0972
RRIRCRPPRLPRPRPRPMQCPRP	0.0136
RRIRCRPPRLPRPRPRPMQKPRP	0.0364
RRIRCRPPRLPRPRPRPMQLPRP	-0.239
RRIRCRPPRLPRPRPRPMRSPRP	0.211
RRIRCRPPRLPRPRPRPMSFPRP	-0.29
RRIRCRPPRLPRPRPRPMSKPRP	-0.5
RRIRCRPPRLPRPRPRPMTPPRP	0.377
RRIRCRPPRLPRPRPRPMTQPRP	-0.188
RRIRCRPPRLPRPRPRPMTYPRP	-0.185
RRIRCRPPRLPRPRPRPMVRPRP	0.158
RRIRCRPPRLPRPRPRPMWLPRP	-0.235
RRIRCRPPRLPRPRPRPNCCPRP	0.188
RRIRCRPPRLPRPRPRPNCMPRP	-0.369
RRIRCRPPRLPRPRPRPNCQPRP	-0.134
